These results are taken from patent publication US20210063414A1, “METHODS FOR PREVENTING AND/OR TREATING BONE LOSS CONDITIONS BY MODULATING IRISIN” (Dana-Farber Cancer Institute, Inc., priority 2018, published 2021).

In one experiment the target is T1, integrin αV/β3 (Homo sapiens, UniProt P05106+P06756).
T1 construct: expressed in transfected cells; host or cells: HEK293T
In words: FAK phosphorylation in HEK293T cells with forced expression of integrin αV/β3. It counts as cell-based. As to conditions: HEK293T with integrin αV/β3, vitronectin-coated plates. The method, then: 100 nM irisin was incubated with 5 nM indicated his-tag integrins followed by immunoprecipitation using Ni-NTA agaroses. Precipitated integrins and co-precipitated irisin were analyzed by immunoblot analysis. […] HEK293T cells were seeded and incubated until 50% cell density. The cells were transfected with 0.1 μg plasmids of indicated integrins. After 48 hours, the cells were incubated with Freestyle293 medium for 3 hours and were treated with indicated concentration of irisin for 5 minutes. Cells were lysed to detect the indicated protein level using immunoblot analysis. […] MLO-Y4 cells were treated as described in FIG. 2D with addition of pretreatment of indicated antagonistic antibodies for 10 minutes. Cells were lysed to detect the indicated protein level using immunoblot analysis. […] Sclerostin mRNA level was analyzed by qRT-PCR. […]
100 nM irisin was incubated with 5 nM indicated his-tag integrins followed by immunoprecipitation using Ni-NTA agaroses. Precipitated integrins and co-precipitated irisin were analyzed by immunoblot analysis. […] Cells were treated and analyzed as FIG. 14B except using plasmids encoding integrin α5/β1 or integrin α11/β1 (FIG. 15C) integrin αV/β1(FIG. 15D). […]
(§1) Cells were harvested in RIPA buffer containing protease-inhibitor cocktail and phosphataseinhibitor cocktail. […] Protein levels were analyzed via western blot using indicated antibody. […]

The next experiment concerns the target T2, integrin αV/β5 (Homo sapiens, UniProt P06756+P18084).
T2 construct: expressed in transfected cells; host or cells: HEK293T
In words: FAK phosphorylation in HEK293T cells with forced expression of integrin αV/β5. It counts as cell-based. As to conditions: HEK293T with integrin αV/β5, vitronectin-coated plates. On the procedure: 100 nM irisin was incubated with 5 nM indicated his-tag integrins followed by immunoprecipitation using Ni-NTA agaroses. Precipitated integrins and co-precipitated irisin were analyzed by immunoblot analysis. […] HEK293T cells were seeded and incubated until 50% cell density. The cells were transfected with 0.1 μg plasmids of indicated integrins. After 48 hours, the cells were incubated with Freestyle293 medium for 3 hours and were treated with indicated concentration of irisin for 5 minutes. Cells were lysed to detect the indicated protein level using immunoblot analysis. […] MLO-Y4 cells were treated as described in FIG. 2D with addition of pretreatment of indicated antagonistic antibodies for 10 minutes. Cells were lysed to detect the indicated protein level using immunoblot analysis. […] MLO-Y4 cells were treated as described in FIG. 1B except with addition of the pretreatment of indicated antagonistic antibodies for 10 minutes. Sclerostin mRNA level was analyzed by qRT-PCR. Cyclophilin was used for house-keeping gene. […] The ribbon diagram is colored by HDX stabilization/destabilization. Percentages of deuterium differences are color-coded according to the smooth color gradient key at the bottom. Crystal structure of irisin dimer is from Protein Data Bank (PDB) (4 lsd) and a homology model of integrin β5 was built based on integrin β3 structure from PDB (4MMX).
100 nM irisin was incubated with 5 nM indicated his-tag integrins followed by immunoprecipitation using Ni-NTA agaroses. Precipitated integrins and co-precipitated irisin were analyzed by immunoblot analysis. […] HEK293T cells were seeded and incubated until 50% cell density. The cells were transfected with 0.1 μg plasmids of indicated integrins. After 48 hours, the cells were re-split to indicated dose of vitronectin-coated plates. Cells were incubated with culture medium for 3 hours. Cells were lysed to detect the indicated protein level using immunoblot analysis. FIG. 15C and FIG. 15D show the immunoblot data. Cells were treated and analyzed as FIG. 14B except using plasmids encoding integrin α5/β1 or integrin α11/β1 (FIG. 15C) integrin αV/β1(FIG. 15D).
MLO-Y4 cells were treated and analyzed as described in FIG. 5A with addition of pretreatment of control RGD peptide, cyclo RGDyK (cRGDyK), or SB273005. […] HEK293 cells were treated and analyzed as described in FIG. 14B except the treatment of different dose of cyclo RGDyK. […] 8 weeks old male mice were treated and analyzed as described in FIG. 5D except the additional group with co-injection of 1 mg/kg SB273005. […]
as §1

T2 sequence (P06756 31-889 limits assumed): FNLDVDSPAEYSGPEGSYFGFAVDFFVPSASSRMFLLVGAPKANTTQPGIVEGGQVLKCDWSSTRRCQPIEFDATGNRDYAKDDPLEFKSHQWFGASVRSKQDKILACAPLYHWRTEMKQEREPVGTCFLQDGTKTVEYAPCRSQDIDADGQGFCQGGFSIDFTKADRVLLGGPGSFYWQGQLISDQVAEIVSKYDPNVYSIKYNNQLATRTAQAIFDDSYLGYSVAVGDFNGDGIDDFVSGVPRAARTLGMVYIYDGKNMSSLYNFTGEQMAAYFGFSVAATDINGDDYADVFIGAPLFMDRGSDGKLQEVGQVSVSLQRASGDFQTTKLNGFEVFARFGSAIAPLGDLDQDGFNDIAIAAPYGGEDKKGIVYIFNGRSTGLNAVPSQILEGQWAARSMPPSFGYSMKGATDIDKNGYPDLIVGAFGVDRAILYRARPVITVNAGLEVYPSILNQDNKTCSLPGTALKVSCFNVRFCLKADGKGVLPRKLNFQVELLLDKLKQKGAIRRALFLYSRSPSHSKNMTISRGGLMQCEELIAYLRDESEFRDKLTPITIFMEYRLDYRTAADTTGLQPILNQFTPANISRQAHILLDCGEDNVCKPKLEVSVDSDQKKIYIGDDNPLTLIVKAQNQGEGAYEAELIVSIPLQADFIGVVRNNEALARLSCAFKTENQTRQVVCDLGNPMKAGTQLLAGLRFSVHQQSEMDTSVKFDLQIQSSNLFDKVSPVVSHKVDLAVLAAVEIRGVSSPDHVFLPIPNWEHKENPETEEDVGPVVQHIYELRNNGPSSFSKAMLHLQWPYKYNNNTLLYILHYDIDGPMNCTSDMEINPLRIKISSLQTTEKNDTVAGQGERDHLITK
T2 sequence (P06756 891-1048 partner limits assumed): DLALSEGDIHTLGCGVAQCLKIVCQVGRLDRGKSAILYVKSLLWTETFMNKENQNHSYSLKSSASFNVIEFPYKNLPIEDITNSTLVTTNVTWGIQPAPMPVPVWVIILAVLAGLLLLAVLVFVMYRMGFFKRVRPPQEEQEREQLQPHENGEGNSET
T2 sequence (P18084 24-799): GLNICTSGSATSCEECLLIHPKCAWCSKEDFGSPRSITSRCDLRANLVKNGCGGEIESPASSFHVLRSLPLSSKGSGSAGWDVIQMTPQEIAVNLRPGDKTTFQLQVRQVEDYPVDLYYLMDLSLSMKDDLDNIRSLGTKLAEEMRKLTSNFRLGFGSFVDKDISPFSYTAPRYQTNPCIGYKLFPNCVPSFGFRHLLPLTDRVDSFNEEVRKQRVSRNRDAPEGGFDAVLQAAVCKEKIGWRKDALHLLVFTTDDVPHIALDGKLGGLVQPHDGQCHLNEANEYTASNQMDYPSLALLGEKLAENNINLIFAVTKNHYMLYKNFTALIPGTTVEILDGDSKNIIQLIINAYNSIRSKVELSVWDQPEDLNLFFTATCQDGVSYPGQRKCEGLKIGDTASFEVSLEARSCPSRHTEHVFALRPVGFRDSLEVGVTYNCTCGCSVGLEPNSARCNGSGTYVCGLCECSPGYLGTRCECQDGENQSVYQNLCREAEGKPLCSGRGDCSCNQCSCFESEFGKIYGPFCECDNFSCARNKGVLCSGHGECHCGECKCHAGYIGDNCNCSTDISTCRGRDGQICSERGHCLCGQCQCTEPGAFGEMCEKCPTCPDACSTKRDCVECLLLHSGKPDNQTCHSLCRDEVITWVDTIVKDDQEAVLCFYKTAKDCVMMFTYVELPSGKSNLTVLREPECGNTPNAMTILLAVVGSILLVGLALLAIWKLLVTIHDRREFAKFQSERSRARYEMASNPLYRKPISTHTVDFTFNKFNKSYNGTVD
T1 sequence (P06756 31-889 limits assumed): as the sequence (P06756 31-889 limits assumed) above
T1 sequence (P06756 891-1048 partner limits assumed): as the sequence (P06756 891-1048 partner limits assumed) above
T1 sequence (P05106 27-788): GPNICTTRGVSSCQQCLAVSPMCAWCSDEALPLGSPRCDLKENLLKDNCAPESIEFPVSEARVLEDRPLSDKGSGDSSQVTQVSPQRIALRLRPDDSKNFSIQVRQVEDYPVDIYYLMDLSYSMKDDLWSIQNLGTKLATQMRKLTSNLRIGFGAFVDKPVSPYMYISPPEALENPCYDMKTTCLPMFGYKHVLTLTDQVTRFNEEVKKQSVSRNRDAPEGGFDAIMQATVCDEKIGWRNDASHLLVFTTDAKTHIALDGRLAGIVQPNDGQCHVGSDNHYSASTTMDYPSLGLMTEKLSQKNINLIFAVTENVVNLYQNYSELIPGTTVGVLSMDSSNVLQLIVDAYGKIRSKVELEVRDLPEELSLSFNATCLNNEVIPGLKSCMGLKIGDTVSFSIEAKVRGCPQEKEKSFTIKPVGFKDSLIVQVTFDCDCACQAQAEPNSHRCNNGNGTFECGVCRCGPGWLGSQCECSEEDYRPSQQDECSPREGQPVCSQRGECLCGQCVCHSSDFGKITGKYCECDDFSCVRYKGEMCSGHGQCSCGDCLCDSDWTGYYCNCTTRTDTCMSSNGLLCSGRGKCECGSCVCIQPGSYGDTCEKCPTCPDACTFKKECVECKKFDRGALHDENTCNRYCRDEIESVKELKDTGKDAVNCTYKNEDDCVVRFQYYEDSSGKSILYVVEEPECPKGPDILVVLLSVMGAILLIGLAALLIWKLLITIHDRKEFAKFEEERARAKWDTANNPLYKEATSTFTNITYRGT

With “Vitronectin: a ligand for integrin αV family, positive control [reference compound]”, the “phosphorylation of FAK (positive control)” value with integrin αV/β3 and with integrin αV/β5 was “induced phosphorylation of FAK” each time.
